Laboratory results: PMC5053343, “Improvement of free fatty acid production using a mutant acyl-CoA thioesterase I with high specific activity in Escherichia coli” (Biotechnology for Biofuels, 2016)

Substrate: CCCCCCCCCCCCCCCC(=O)SCCNC(=O)CCNC(=O)[C@H](O)C(C)(C)COP(=O)(O)OP(=O)(O)OC[C@H]1O[C@@H](n2cnc3c(N)ncnc32)[C@H](O)[C@@H]1OP(=O)(O)O
Experiment: purified protein
Type: biochemical, Escherichia coli
Details: 50 mM potassium phosphate pH 7.0, 80 ug/mL BSA, 0.1 mM DTNB, 3.1 x 10^-5 mM enzyme, 0-24 uM palmitoyl-CoA

B1: 'TesA (leader sequence-deleted acyl-CoA thioesterase I) (Escherichia coli K-12) (protein)
chain: ADTLLILGDSLSAGYRMSASAAWPALLNDKWQSKTSVVNASISGDTSQQGLARLPALLKQHQPRWVLVELGGNDGLRGFQPQQTEQTLRQILQDVKAANAEPLLMQIRLPANYGRRYNEAFSAIYPKLAKEFDVPLLPFFMEEVYLKPQWMQDDGIHPNRDAQPFIADWMAKQLQPLVNHDS
notes: signal peptide removed (leaderless), C-terminal (His)6 tag from pET28a (NcoI/XhoI), kept; expressed in E. coli BL21(DE3), Ni-NTA purified
**Q.** Which results are given for B1?
**A.** Km: 6.69 µM; kcat: 20.75 s⁻¹

B2: 'TesA (leader sequence-deleted acyl-CoA thioesterase I) (Escherichia coli K-12; R90C) (protein)
chain: ADTLLILGDSLSAGYRMSASAAWPALLNDKWQSKTSVVNASISGDTSQQGLARLPALLKQHQPCWVLVELGGNDGLRGFQPQQTEQTLRQILQDVKAANAEPLLMQIRLPANYGRRYNEAFSAIYPKLAKEFDVPLLPFFMEEVYLKPQWMQDDGIHPNRDAQPFIADWMAKQLQPLVNHDS
notes: as for B1
**Q.** With B2 as the protein, how does the Km read?
**A.** 4.00 µM

**Q.** And the kcat?
**A.** 27.12 s⁻¹
